Here are results for two molecules from article PMC12400190, “Crystal structures of 40- and 71-substitution variants of hydroxynitrile lyase from rubber tree” (Acta Crystallographica Section D: Structural Biology, 2025).

What all share (conditions): 5 mM BES pH 7.2, 7-8% (v/v) acetonitrile
In one data set the target is T1, SABP2 (Nicotiana tabacum, UniProt Q6RYA0).
T1 construct: production of the assayed sample not described in the main text
T1 sequence (Q6RYA0 1-260): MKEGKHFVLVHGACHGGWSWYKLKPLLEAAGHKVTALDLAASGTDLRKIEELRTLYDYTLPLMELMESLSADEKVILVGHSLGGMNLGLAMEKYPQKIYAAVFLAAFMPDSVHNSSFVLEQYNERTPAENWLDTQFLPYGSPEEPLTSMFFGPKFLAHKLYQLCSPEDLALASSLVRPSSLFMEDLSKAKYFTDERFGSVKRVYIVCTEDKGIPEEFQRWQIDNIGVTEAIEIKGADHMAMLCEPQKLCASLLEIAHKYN
Description: spectrophotometric ester hydrolysis at […] nm, Michaelis-Menten fit. The class given is biochemical.

The target of the next data set is T2, HbHNL (Hevea brasiliensis, UniProt P52704).
T2 construct: gene HNL; full length 257 aa; variant structures 8sni (HNL40), 9clr (HNL71); dimer
The data set is described as above. The class given is biochemical.

Data set [1] deals with CC(=O)Oc1ccc([N+](=O)[O-])cc1. Description: purified protein.

T2 sequence (P52704 whole entry): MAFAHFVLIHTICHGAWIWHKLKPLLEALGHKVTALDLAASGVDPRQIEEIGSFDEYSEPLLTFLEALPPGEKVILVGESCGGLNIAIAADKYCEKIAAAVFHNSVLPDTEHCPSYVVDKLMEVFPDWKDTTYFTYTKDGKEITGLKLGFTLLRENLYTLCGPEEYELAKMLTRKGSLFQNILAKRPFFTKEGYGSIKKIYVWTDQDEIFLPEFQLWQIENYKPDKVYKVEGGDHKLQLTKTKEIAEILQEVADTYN

By Km is commonly meant the substrate concentration at which the rate is half of its maximum. Take `CC(=O)Oc1ccc([N+](=O)[O-])cc1` [p-nitrophenyl acetate]: the Michaelis constant (Km) on SABP2 worked out at 2200 ± 200 µM; on HbHNL it was 3000 ± 400 µM.
Broadly, the kcat is the number of substrate molecules converted per active site and unit of time at saturation. In general, kcat/Km refers to the second-order rate constant that governs catalysis at low substrate concentration. With “HbHNL (Hevea brasiliensis; C81L/E79H/F210I/H103V/I12A/I209G/K236M/L121Y/L146M/L148F/L152F/N104A/T11G/T151K/V106F/V118L)”, in data set [1], the Km was determined as 600 ± 200 µM, the kcat is 0.00583 ± 0.000167 s⁻¹ and the kcat/Km amounted to 10.7 M⁻¹ s⁻¹.
